This note sets out measurements from patent publication US20040235112.

One series concerns the target T1, GST-ATF2 (UniProt P15336).
T1 sequence: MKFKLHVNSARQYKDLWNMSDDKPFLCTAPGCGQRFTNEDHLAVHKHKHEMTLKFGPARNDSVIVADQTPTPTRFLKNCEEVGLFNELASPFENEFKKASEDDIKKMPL

Another series addresses GST-JNK2 (UniProt P45984).
A further series concerns the target GST-cJun(1-79) (UniProt P05412).
In a further series the target is GST-p38 (UniProt Q16539).
Chain of GST-p38 (Q16539 whole entry): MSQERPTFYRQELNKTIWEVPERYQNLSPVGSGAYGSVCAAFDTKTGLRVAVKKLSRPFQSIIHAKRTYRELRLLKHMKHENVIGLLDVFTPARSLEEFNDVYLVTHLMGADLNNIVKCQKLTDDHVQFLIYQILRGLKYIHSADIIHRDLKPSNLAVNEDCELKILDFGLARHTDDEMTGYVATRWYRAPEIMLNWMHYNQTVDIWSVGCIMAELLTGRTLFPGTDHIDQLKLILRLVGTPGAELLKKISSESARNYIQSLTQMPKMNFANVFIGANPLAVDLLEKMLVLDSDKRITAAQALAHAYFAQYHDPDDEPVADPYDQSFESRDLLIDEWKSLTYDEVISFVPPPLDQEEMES

Chain of GST-cJun(1-79) (P05412 1-79): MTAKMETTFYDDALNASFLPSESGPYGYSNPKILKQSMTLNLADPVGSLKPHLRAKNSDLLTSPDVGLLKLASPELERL
Chain of GST [GST: P08515] (P08515 whole entry): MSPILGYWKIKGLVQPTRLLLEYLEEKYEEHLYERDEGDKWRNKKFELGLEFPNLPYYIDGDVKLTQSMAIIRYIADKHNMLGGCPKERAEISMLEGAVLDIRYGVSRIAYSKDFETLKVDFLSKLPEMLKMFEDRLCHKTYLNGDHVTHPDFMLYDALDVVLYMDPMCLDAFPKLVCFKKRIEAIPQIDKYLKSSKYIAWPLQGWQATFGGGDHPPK

GST-MEK6: the “phosphorylation of substrate in in vitro kinase assay ([γ-32P]ATP, SDS-PAGE, autoradiography)” value in the series on GST [GST: P08515], in the series with GST-JNK2, with GST-p38 and in the series on His-ERK1[K52R] was “MEK6 efficiently phosphorylated p38 but none of the other substrates” in each case. The “phosphorylation of GST-ATF2 in coupled in vitro kinase assay” value with GST-ATF2 was “ATF2 was not directly phosphorylated by MEK6”. Moreover, in the series with GST-cJun(1-79), the “phosphorylation of GST-Jun(1-79) in coupled in vitro kinase assay” value was “MEK6 did not cause increased phosphorylation of Jun (GST-Jun(1-79) ...) either directly or in combination with JNK2”.
As for 3xHA-MEK6, in the series with GST-p38, the “phosphorylation of GST-p38 in immune complex kinase assay (HeLa lysates, anti-HA 12CA5 immunoprecipitate)” value is “MEK6 activation by anisomycin as measured by its ability to phosphorylate p38, was observed as early as 10 min after treatment”.
